± gives the standard deviation of the averaged measurements.
Assay: total protein half-life in vivo (active degradation + dilution); higher = more stable protein
[1] = E. coli NCM3722 delta-clpP delta-lon delta-hslV, growth: N-lim chemostat, doubling time 6 h
[2] = E. coli NCM3722 delta-clpP, growth: N-lim chemostat, doubling time 6 h
[3] = E. coli NCM3722 delta-hslV, growth: N-lim chemostat, doubling time 6 h
[4] = E. coli NCM3722 delta-lon, growth: N-lim chemostat, doubling time 6 h
[5] = E. coli NCM3722 delta-smpB, growth: N-lim chemostat, doubling time 6 h
[6] = wild type E. coli NCM3722, growth: C-lim chemostat, doubling time 3 h
[7] = wild type E. coli NCM3722, growth: C-lim chemostat, doubling time 6 h
[8] = wild type E. coli NCM3722, growth: C-lim chemostat, doubling time 12 h
[9] = wild type E. coli NCM3722, growth: N-lim chemostat, doubling time 6 h
[10] = wild type E. coli NCM3722, growth: N-lim chemostat, doubling time 12 h
[11] = wild type E. coli NCM3722, growth: P-lim chemostat, doubling time 6 h
[12] = wild type E. coli NCM3722, growth: P-lim chemostat, doubling time 12 h

MFKPELLSPAGTLKNMRYAFAYGADAVYAGQPRYSLRVRNNEFNHENLQLGINEAHALGKKFYVVVNIAPHNAKLKTFIRDLKPVVEMGPDALIMSDPGLIMLVREHFPEMPIHLSVQANAVNWATVKFWQQMGLTRVILSRELSLEEIEEIRNQVPDMEIEIFVHGALCMAYSGRCLLSGYINKRDPNQGTCTNACRWEYNVQEGKEDDVGNIVHKYEPIPVQNVEPTLGIGAPTDKVFMIEEAQRPGEYMTAFEDEHGTYIMNSKDLRAIAHVERLTKMGVHSLKIEGRTKSFYYCARTAQVYRKAIDDAAAGKPFDTSLLETLEGLAHRGYTEGFLRRHTHDDYQNYEYGYSVSDRQQFVGEFTGERKGDLAAVAVKNKFSVGDSLELMTPQGNINFTLEHMENAKGEAMPIAPGDGYTVWLPVPQDLELNYALLMRNFSGETTRNPHGK
total protein half-life in vivo [1]: 2.98 ± 0.19 h
total protein half-life in vivo [2]: 1.94 ± 0.45 h
total protein half-life in vivo [3]: 1.96 ± 0.29 h
total protein half-life in vivo [4]: 2.01 ± 0.14 h
total protein half-life in vivo [5]: 1.77 ± 0.092 h
total protein half-life in vivo [6]: 2.77 ± 0.029 h
total protein half-life in vivo [7]: 3.68 ± 0.062 h
total protein half-life in vivo [8]: 5.83 ± 0.49 h
total protein half-life in vivo [9]: 1.91 ± 0.17 h
total protein half-life in vivo [10]: 2.5 ± 0.0042 h
total protein half-life in vivo [11]: 4.1 ± 0.069 h
total protein half-life in vivo [12]: 7.89 ± 0.33 h

MFKRRYVTLLPLFVLLAACSSKPKPTETDTTTGTPSGGFLLEPQHNVMQMGGDFANNPNAQQFIDKMVNKHGFDRQQLQEILSQAKRLDSVLRLMDNQAPTTSVKPPSGPNGAWLRYRKKFITPDNVQNGVVFWNQYEDALNRAWQVYGVPPEIIVGIIGVETRWGRVMGKTRILDALATLSFNYPRRAEYFSGELETFLLMARDEQDDPLNLKGSFAGAMGYGQFMPSSYKQYAVDFSGDGHINLWDPVDAIGSVANYFKAHGWVKGDQVAVMANGQAPGLPNGFKTKYSISQLAAAGLTPQQPLGNHQQASLLRLDVGTGYQYWYGLPNFYTITRYNHSTHYAMAVWQLGQAVALARVQ
total protein half-life in vivo [1]: 5.38 ± 0.079 h
total protein half-life in vivo [2]: 5.65 ± 2 h
total protein half-life in vivo [5]: 5.5 ± 0.089 h
total protein half-life in vivo [6]: 3.61 h
total protein half-life in vivo [9]: 5.55 ± 0.14 h
total protein half-life in vivo [10]: 10.8 h
total protein half-life in vivo [11]: 5.1 h
total protein half-life in vivo [12]: > 16 h

MFNEVHSIHGHTLLLITKSSLQATALLQHLKQSLAITGKLHNIQRSLDDISSGSIILLDMMEADKKLIHYWQDTLSRKNNNIKILLLNTPEDYPYRDIENWPHINGVFYSMEDQERVVNGLQGVLRGECYFTQKLASYLITHSGNYRYNSTESALLTHREKEILNKLRIGASNNEIARSLFISENTVKTHLYNLFKKIAVKNRTQAVSWANDNLRR
total protein half-life in vivo [2]: 1.72 ± 0.18 h
total protein half-life in vivo [3]: 0.584 h
total protein half-life in vivo [5]: 0.772 h
total protein half-life in vivo [9]: 0.875 h
total protein half-life in vivo [10]: 1.84 h
total protein half-life in vivo [12]: 1.48 ± 0.36 h

MFNSDNLRLDGKCAIITGAGAGIGKEIAITFATAGASVVVSDINADAANHVVDEIQQLGGQAFACRCDITSEQELSALADFAISKLGKVDILVNNAGGGGPKPFDMPMADFRRAYELNVFSFFHLSQLVAPEMEKNGGGVILTITSMAAENKNINMTSYASSKAAASHLVRNMAFDLGEKNIRVNGIAPGAILTDALKSVITPEIEQKMLQHTPIRRLGQPQDIANAALFLCSPAASWVSGQILTVSGGGVQELN [P0AET8]
total protein half-life in vivo [1]: 4.91 ± 0.11 h
total protein half-life in vivo [2]: 4.39 ± 0.73 h
total protein half-life in vivo [3]: 4.72 ± 0.18 h
total protein half-life in vivo [4]: 5.48 ± 0.66 h
total protein half-life in vivo [5]: 4.27 ± 0.21 h
total protein half-life in vivo [6]: 3.53 ± 0.6 h
total protein half-life in vivo [7]: 5.51 ± 1.1 h
total protein half-life in vivo [8]: 10.2 ± 1.2 h
total protein half-life in vivo [9]: 4.57 ± 0.14 h
total protein half-life in vivo [10]: 7.309 ± 0.022 h
total protein half-life in vivo [11]: 5.64 ± 0.42 h
total protein half-life in vivo [12]: 11.8 ± 0.3 h

MFQLSVQDIHPGEKAGDKEEAIRQVAAALVQAGNVAEGYVNGMLAREQQTSTFLGNGIAIPHGTTDTRDQVLKTGVQVFQFPEGVTWGDGQVAYVAIGIAASSDEHLGLLRQLTHVLSDDSVAEQLKSATTAEELRALLMGEKQSEQLKLDNEMLTLDIVASDLLTLQALNAARLKEAGAVDATFVTKAINEQPLNLGQGIWLSDSAEGNLRSAIAVSRAANAFDVDGETAAMLVSVAMNDDQPIAVLKRLADLLLDNKADRLLKADAATLLALLTSDDAPTDDVLSAEFVVRNEHGLHARPGTMLVNTIKQFNSDITVTNLDGTGKPANGRSLMKVVALGVKKGHRLRFTAQGADAEQALKAIGDAIAAGLGEGA
total protein half-life in vivo [1]: 6.229 ± 0.029 h
total protein half-life in vivo [2]: 5.64 ± 0.69 h
total protein half-life in vivo [3]: 5.85 ± 0.086 h
total protein half-life in vivo [4]: 6.16 ± 0.26 h
total protein half-life in vivo [5]: 5.94 ± 0.085 h
total protein half-life in vivo [6]: 2.96 ± 0.13 h
total protein half-life in vivo [7]: 5.74 ± 0.56 h
total protein half-life in vivo [8]: 12.3 ± 1.2 h
total protein half-life in vivo [9]: 5.99 ± 0.57 h
total protein half-life in vivo [11]: 5.71 ± 0.078 h
total protein half-life in vivo [12]: 11.97 ± 0.033 h

MFQQQKDWETRENAFAAFTMGPLTDFWRQRDEAEFTGVDDIPVRFVRFRAQHHDRVVVICPGRIESYVKYAELAYDLFHLGFDVLIIDHRGQGRSGRLLADPHLGHVNRFNDYVDDLAAFWQQEVQPGPWRKRYILAHSMGGAISTLFLQRHPGVCDAIALTAPMFGIVIRMPSFMARQILNWAEAHPRFRDGYAIGTGRWRALPFAINVLTHSRQRYRRNLRFYADDPTIRVGGPTYHWVRESILAGEQVLAGAGDDATPTLLLQAEEERVVDNRMHDRFCELRTAAGHPVEGGRPLVIKGAYHEILFEKDAMRSVALHAIVDFFNRHNSPSGNRSTEV
total protein half-life in vivo [1]: 5.43 ± 1.2 h
total protein half-life in vivo [2]: > 8 h
total protein half-life in vivo [3]: 4.87 ± 0.73 h
total protein half-life in vivo [4]: 4.93 ± 0.22 h
total protein half-life in vivo [5]: 4.57 ± 0.31 h
total protein half-life in vivo [6]: 3.13 ± 0.43 h
total protein half-life in vivo [7]: 6.52 ± 0.38 h
total protein half-life in vivo [8]: 11.3 ± 1.8 h
total protein half-life in vivo [9]: 4.42 ± 0.28 h
total protein half-life in vivo [10]: 8.56 ± 0.72 h
total protein half-life in vivo [11]: 6.17 ± 0.69 h
total protein half-life in vivo [12]: 10.8 ± 0.91 h

MFRPFLNSLMLGSLFFPFIAIAGSTVQGGVIHFYGQIVEPACDVSTQSSPVEMNCPQNGSIPGKTYSSKALMSGNVKNAQIASVKVQYLDKQKKLAVMNIEYN
total protein half-life in vivo [6]: 0.288 h
total protein half-life in vivo [7]: 0.225 h

MFSALRHRTAALALGVCFILPVHASSPKPGDFANTQARHIATFFPGRMTGTPAEMLSADYIRQQFQQMGYRSDIRTFNSRYIYTARDNRKSWHNVTGSTVIAAHEGKAPQQIIIMAHLDTYAPLSDADADANLGGLTLQGMDDNAAGLGVMLELAERLKNTPTEYGIRFVATSGEEEGKLGAENLLKRMSDTEKKNTLLVINLDNLIVGDKLYFNSGVKTPEAVRKLTRDRALAIARSHGIAATTNPGLNKNYPKGTGCCNDAEIFDKAGIAVLSVEATNWNLGNKDGYQQRAKTPAFPAGNSWHDVRLDNHQHIDKALPGRIERRCRDVMRIMLPLVKELAKAS
total protein half-life in vivo [2]: 5.3 ± 0.29 h
total protein half-life in vivo [3]: 5.24 ± 0.83 h
total protein half-life in vivo [4]: 5.44 ± 0.031 h
total protein half-life in vivo [5]: 4.38 ± 0.053 h
total protein half-life in vivo [6]: 2.58 ± 0.67 h
total protein half-life in vivo [7]: 2.46 h
total protein half-life in vivo [9]: 5.37 ± 1 h
total protein half-life in vivo [10]: 9.09 ± 1.6 h
total protein half-life in vivo [11]: 4 ± 0.27 h
total protein half-life in vivo [12]: 7.1 ± 0.99 h

— the supplement of paper PMC11246515
